Results as given in the supplement of paper PMC10126150.
± gives the standard deviation of the averaged measurements.

system: ATP; test: switch fluorescence ratio, 500 uM ATP over buffer (Cy3 cluster intensity, sum of 5 cycles each) (fold (ratio)); higher = stronger signal-on switching upon ATP binding; sequences stand for … in TCGTCGGCAGCGTCAGATGTGTATAAGAGACAGTTTTTTTTTTTTTTTTTTTTTTTTT…TC; settings: aptamer strand: ATP DNA aptamer (quencher-CACCTGGGGGAGTATTGCGGAGGAAGG + anchor), 100 nM annealed; ATP concentration: 500 uM
Method in brief: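 The fluorescence ratio divides summed target-cycle Cy3 intensity by summed buffer-cycle Cy3 intensity for each cluster and is averaged per switch-domain sequence. Cy3-labelled switching-strand clusters on a modified Illumina MiSeq flow-cell were annealed to 100 nM quencher-labelled ATP aptamer, then imaged in selection buffer and again after 15 min with 500 uM ATP at 22 °C. Five such cycles were run, with NaOH stripping and re-annealing between them, and clusters outside 100-1000 RFU were excluded.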
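Note: ATP exposure 15 min at 22 °C before imaging.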

ATAGGCGCGG and TGGGGGGGGC are the same in switch fluorescence ratio: 1.01 ± 0.02 for the first, 1.01 ± 0.034 for the second.

GATCGTTTTA and AGATTCATGC are within error of each other in switch fluorescence ratio: 1 ± 0.022 for the first, 1.01 ± 0.019 for the second.

ATGCCATTAA and CAGGTACATT are within error of each other in switch fluorescence ratio: 0.9718 ± 0.0018 for the first, 1.02 ± 0.049 for the second.

AAGGGGAAAG and AGTGCGAGAG are within error of each other in switch fluorescence ratio: 0.998 ± 0.025 for the first, 1.01 ± 0.029 for the second.

GGTGATGGGC and AGGCGGATTT are within error of each other in switch fluorescence ratio: 1.01 ± 0.062 for the first, 1 ± 0.044 for the second.

ATTTTGCAAG and ATGGGTCTCT are within error of each other in switch fluorescence ratio: 0.994 ± 0.018 for the first, 0.997 ± 0.017 for the second.

GAAGGGATGG and GATGTCCCGG are within error of each other in switch fluorescence ratio: 1.08 ± 0.15 for the first, 0.987 ± 0.022 for the second.

TAAATAAGTT and TTAAATCATA are within error of each other in switch fluorescence ratio: 1.004 ± 0.0097 for the first, 0.99742 ± 0.00093 for the second.

Compared with ATGCGCTAAT, ATTAAGGTAA is lower in switch fluorescence ratio: 1.07 ± 0.013 for the first, 1.01 ± 0.033 for the second.

TTTCAATGTC and CGATCTAGTA are the same in switch fluorescence ratio: 0.97 ± 0.11 for the first, 0.97 ± 0.015 for the second.

TTTTGGGATC and AACATTGGTC are within error of each other in switch fluorescence ratio: 0.996 ± 0.016 for the first, 1.01 ± 0.017 for the second.

First: TAATTTTGGT
Second: TGCTAAATTA
The switch fluorescence ratio of the first is lower: 0.9847 ± 0.0068 for the first, 1.01 ± 0.011 for the second.

AATTAGACAG and CAAGGTCGGC are within error of each other in switch fluorescence ratio: 0.9912 ± 0.0047 for the first, 1 ± 0.04 for the second.

TACTAGTTGT and TAAATTAATC are within error of each other in switch fluorescence ratio: 0.99 ± 0.022 for the first, 1.01 ± 0.018 for the second.

TTTGCGCCGT and TCCCTTGGTT are within error of each other in switch fluorescence ratio: 1.02 ± 0.058 for the first, 1.05 ± 0.054 for the second.

ATGAGAGGTT and TTGTTTAAAG are within error of each other in switch fluorescence ratio: 0.994 ± 0.049 for the first, 0.9764 ± 0.0021 for the second.

TCGTACTTTT and GGCGGTGGGT are within error of each other in switch fluorescence ratio: 0.989 ± 0.05 for the first, 0.999 ± 0.038 for the second.

ATTTGGACGT and GATCTTTCAT are within error of each other in switch fluorescence ratio: 1.02 ± 0.016 for the first, 1 ± 0.018 for the second.

TTTTGGCAGG and TTTCCATTCT are within error of each other in switch fluorescence ratio: 1.03 ± 0.037 for the first, 1 ± 0.015 for the second.

ATTATGGAAG and TTTGGGGACG are within error of each other in switch fluorescence ratio: 0.994 ± 0.018 for the first, 1.01 ± 0.019 for the second.

AAGGGTTGTT and TCGTGTTAGG are within error of each other in switch fluorescence ratio: 1.01 ± 0.032 for the first, 1.02 ± 0.022 for the second.

ATTATTGGGA and GTGTGAGGGT are within error of each other in switch fluorescence ratio: 1 ± 0.046 for the first, 1.04 ± 0.053 for the second.

Compared with TTTTGGGGAT, GCTTCTAGCT is lower in switch fluorescence ratio: 1.01 ± 0.026 for the first, 0.969 ± 0.011 for the second.

CGCGTCATGA and TGTCTACTCT are within error of each other in switch fluorescence ratio: 1.02 ± 0.0043 for the first, 1 ± 0.022 for the second.

GAGTTTGTTG and ATTGAGAGGG are within error of each other in switch fluorescence ratio: 0.985 ± 0.014 for the first, 1.07 ± 0.075 for the second.

TACCGCGTGG and TCTGGTGACG are within error of each other in switch fluorescence ratio: 1.03 ± 0.017 for the first, 1.04 ± 0.054 for the second.

Compared with CTAACTGAG, GTTGTTTTGT is lower in switch fluorescence ratio: 1.03 ± 0.017 for the first, 0.985 ± 0.021 for the second.

Going from TTTTATAGTG to TTTATTTACG, the switch fluorescence ratio rises from 0.984 ± 0.033 to 1.033 ± 0.0082.

First: GCCTGAAAGC
Second: CAACTTTAGT
The switch fluorescence ratio of the first is lower: 0.9912 ± 0.0054 for the first, 1.031 ± 0.0035 for the second.

TTTTTCATAA and GTGTTTTCGT are within error of each other in switch fluorescence ratio: 0.999 ± 0.027 for the first, 0.993 ± 0.03 for the second.

TGGGTTCGAT and GGGGGTCGGT are within error of each other in switch fluorescence ratio: 1.02 ± 0.015 for the first, 1.01 ± 0.048 for the second.

AGTAAGGTTA and GGTGCCACTT are within error of each other in switch fluorescence ratio: 1 ± 0.024 for the first, 1.03 ± 0.024 for the second.

CGTTTACAAG and TGAGGTCAGA are within error of each other in switch fluorescence ratio: 0.985 ± 0.033 for the first, 1.03 ± 0.013 for the second.

TTCGAATGTG and TCTTTTTGTT are within error of each other in switch fluorescence ratio: 1.01 ± 0.028 for the first, 0.99 ± 0.018 for the second.

Compared with AGACGGTCAA, GGCTCATTGG is lower in switch fluorescence ratio: 1.08 ± 0.032 for the first, 0.969 ± 0.025 for the second.

CCAGGGGCGA and GCTCGTTAAA are within error of each other in switch fluorescence ratio: 1.75 ± 0.9 for the first, 1.04 ± 0.1 for the second.

GTTATATTGG and ATCATAGCCG are within error of each other in switch fluorescence ratio: 0.992 ± 0.022 for the first, 1.07 ± 0.14 for the second.

Compared with AAGCGGACGG, TACAGGTGTG is higher in switch fluorescence ratio: 0.9536 ± 0.0046 for the first, 1.24 ± 0.044 for the second.

Going from TTTTTGAGCG to TGCGGGGAGC, the switch fluorescence ratio falls from 1.04 ± 0.0024 to 0.975 ± 0.041.

GACCATGGCA and TAAAAGTG are within error of each other in switch fluorescence ratio: 1.01 ± 0.045 for the first, 0.961 ± 0.05 for the second.

AGGTTATGTG and TACTTATATG are within error of each other in switch fluorescence ratio: 0.999 ± 0.037 for the first, 1.03 ± 0.016 for the second.

Going from CGTCCAGCTT to ATGCTTTCAG, the switch fluorescence ratio falls from 1.51 ± 0.18 to 0.983 ± 0.012.

Going from TTATGAACTT to TTAAGCACAT, the switch fluorescence ratio rises from 1 ± 0.035 to 1.202 ± 0.011.

GGGACTTTGG and TAGAGGGGAT are within error of each other in switch fluorescence ratio: 0.972 ± 0.018 for the first, 0.985 ± 0.027 for the second.

GAGGTGTAGC and GAGCCGGAGC are within error of each other in switch fluorescence ratio: 1.01 ± 0.028 for the first, 0.993 ± 0.012 for the second.

Compared with TGTCATCTAC, GCTGAAAGGG is lower in switch fluorescence ratio: 1.02 ± 0.016 for the first, 0.9903 ± 0.0067 for the second.

GGGATGGGCT and ATTGTATCAG are within error of each other in switch fluorescence ratio: 1.01 ± 0.014 for the first, 0.983 ± 0.027 for the second.

First: CGGACACTTT
Second: ATGTGATGGC
The switch fluorescence ratio of the first is higher: 1.019 ± 0.0091 for the first, 0.981 ± 0.019 for the second.

Compared with TTTCATGGGG, AACGTATGTT is lower in switch fluorescence ratio: 1.014 ± 0.0049 for the first, 0.9895 ± 0.0028 for the second.

Compared with TCGAGTGCGT, TATGATTTAA is higher in switch fluorescence ratio: 0.978 ± 0.014 for the first, 1.01 ± 0.016 for the second.

Compared with TAATTATAGC, AGCGACGGTT is lower in switch fluorescence ratio: 1.05 ± 0.049 for the first, 0.982 ± 0.016 for the second.

TAAAGGCACG and GGTTTCGATA are within error of each other in switch fluorescence ratio: 1.03 ± 0.07 for the first, 0.96836 ± 1.5e-05 for the second.

ATTATGTACT and ATGGGGTAAT are within error of each other in switch fluorescence ratio: 1.05 ± 0.022 for the first, 1.01 ± 0.028 for the second.

GATTATTCTG and AGAGGTAGGA are within error of each other in switch fluorescence ratio: 0.966 ± 0.039 for the first, 0.979 ± 0.016 for the second.

ATTGGGCAGT and GAACCGGGTT are within error of each other in switch fluorescence ratio: 0.973 ± 0.053 for the first, 0.9987 ± 0.0079 for the second.

First: TTTAGCAATG
Second: TACTCGGGCT
The switch fluorescence ratio of the first is higher: 1.64 ± 0.34 for the first, 1.017 ± 0.0044 for the second.

CATTTTGTTT and TCGTGGTGTT are within error of each other in switch fluorescence ratio: 0.998 ± 0.054 for the first, 1.03 ± 0.021 for the second.

CATACGTAGT and AATCGGGTAT are within error of each other in switch fluorescence ratio: 1.01 ± 0.034 for the first, 0.984 ± 0.027 for the second.

CCCGGGTAAG and GGGATCTACA are the same in switch fluorescence ratio: 1.03 ± 0.024 for the first, 1.03 ± 0.024 for the second.

TTTAACAGGT and GGGTTTTATG are within error of each other in switch fluorescence ratio: 1.03 ± 0.023 for the first, 0.991 ± 0.033 for the second.

Going from TTTTCAGCTG to GGGGCTTCTA, the switch fluorescence ratio falls from 1.03 ± 0.016 to 0.957 ± 0.018.

TGCCAGTTTG and TTGGCTACAA are within error of each other in switch fluorescence ratio: 0.9907 ± 0.0065 for the first, 0.985 ± 0.037 for the second.

ATTGGGAGGT and ATGTTGGGGT are within error of each other in switch fluorescence ratio: 0.972 ± 0.033 for the first, 1 ± 0.029 for the second.

AATGGCAGGA and GTTTTGGTTG are within error of each other in switch fluorescence ratio: 0.998 ± 0.016 for the first, 1.01 ± 0.027 for the second.

GTTCAAGGCT and GGGAGTTTTG are the same in switch fluorescence ratio: 1.0016 ± 0.0002 for the first, 1 ± 0.018 for the second.

TGTTGCATCG and TCGAAGGGT are the same in switch fluorescence ratio: 1 ± 0.019 for the first, 1 ± 0.037 for the second.

Going from ATAGTTATGT to GGTAATGGTA, the switch fluorescence ratio falls from 1.0153 ± 0.00095 to 0.9702 ± 0.0045.

Going from TTTTGAGTTC to GCACCCGTAC, the switch fluorescence ratio rises from 1.035 ± 0.0057 to 1.52 ± 0.037.

GGAGTCATTT and AGGGGGGAGT are within error of each other in switch fluorescence ratio: 1 ± 0.014 for the first, 1.02 ± 0.031 for the second.

TTAGGCGGGT and TGTGGGGGTG are the same in switch fluorescence ratio: 1.01 ± 0.064 for the first, 1.01 ± 0.033 for the second.

TTTATTGGTG and TTGAGGGCTT are within error of each other in switch fluorescence ratio: 1.03 ± 0.1 for the first, 0.998 ± 0.025 for the second.

ACGAGGTTTT and TTAGGAGTGT are within error of each other in switch fluorescence ratio: 1.03 ± 0.042 for the first, 0.9863 ± 0.0051 for the second.

GTGAGGCCCC and TAAGGAATTG are within error of each other in switch fluorescence ratio: 1 ± 0.02 for the first, 1.01 ± 0.045 for the second.

TCTATTTGTG and TTAAGGGTGG are within error of each other in switch fluorescence ratio: 0.966 ± 0.02 for the first, 0.991 ± 0.021 for the second.

CCTTGCACG and AGGCCTTTTC are within error of each other in switch fluorescence ratio: 1.18 ± 0.22 for the first, 1.008 ± 0.0026 for the second.

Going from GGGCGCATCG to CGGCGATGGG, the switch fluorescence ratio rises from 0.999 ± 0.018 to 1.11 ± 0.069.

AGTGCCTGCG and GGGCGGGTTT are within error of each other in switch fluorescence ratio: 1.02 ± 0.032 for the first, 1.005 ± 0.0026 for the second.

First: ATTCCCAATT
Second: ATTCGGTCTG
The switch fluorescence ratio of the first is higher: 1.04 ± 0.025 for the first, 0.9825 ± 0.006 for the second.

With TTGTGGCTGG the switch fluorescence ratio was 0.96 ± 0.035.
